Reference: the supplement of paper PMC10567573

B1: GLT8D2 (parent)
chain: QEAKLLHWNGRHKPWDFPSVHNDL

Variants of: B1
Assay: protein stability index of a GFP-peptide fusion (GPS, HEK-293T) (PSI 1-6); higher = more stable
Conditions: c terminus: a fixed tail appended
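Further: lentivirally expressed fusions sorted by FACS into six bins by GFP to DsRed ratio, PSI derived from sequencing read proportions per bin multiplied by bin number.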

Variant | protein stability index
QEAKLLHWNGKHKPWDFPSVHNDL [R11K] | 2.61
QEAKLLHWNGYHKPWDFPSVHNDL [R11Y] | 2.28
QEAKLLHWNGNHKPWDFPSVHNDL [R11N] | 3.05
QEAKLLHWNGRHKQWDFPSVHNDL [P14Q] | 2.27
QEAKLLHWNGRHKCWDFPSVHNDL [P14C] | 2.06
QEAKLLHWNGRHKWWDFPSVHNDL [P14W] | 2.19
QEAKLLHWNGRHKMWDFPSVHNDL [P14M] | 2.36
QEAKLLHWNGRHKAWDFPSVHNDL [P14A] | 2.62
QEAKLLHWNGRHKHWDFPSVHNDL [P14H] | 2.63
QEAKLLHWNGRHKEWDFPSVHNDL [P14E] | 3.16
QEAKLLHWNGRHKDWDFPSVHNDL [P14D] | 3.29
QEAKLLHWNGRHKLWDFPSVHNDL [P14L] | 2.33
QEAKLLHWNGRHKSWDFPSVHNDL [P14S] | 2.68
QEAKLLHWNGRHKPWDAPSVHNDL [F17A] | 3.45
QEAKLLHWNGRHKPWDLPSVHNDL [F17L] | 3.05
QEAKLLHWNGRHKPWDDPSVHNDL [F17D] | 3.36
QEAKLLHWNGRHKPWDRPSVHNDL [F17R] | 3.04
QEAKLLHWNGRHKPWDVPSVHNDL [F17V] | 3.18
QEAKLLHWNGRHKPWDQPSVHNDL [F17Q] | 3.3
QEAKLLHWNGRHAPWDFPSVHNDL [K13A] | 2.85
QEAKLLHWNGRHTPWDFPSVHNDL [K13T] | 2.84
QEAKLLHWNGRHCPWDFPSVHNDL [K13C] | 2.29
QEAKLLHWNGRHEPWDFPSVHNDL [K13E] | 2.92
QEAKLLHWNGRHWPWDFPSVHNDL [K13W] | 2.29

Variant | protein stability index
QEAKLLHWNGRHFPWDFPSVHNDL [K13F] | 2.69
QEAKLLHWNGRHSPWDFPSVHNDL [K13S] | 2.27
QEAKLLHWNGRHKPWDFLSVHNDL [P18L] | 2.25
QEAKLLHWNGRHKPWDFISVHNDL [P18I] | 2.23
QEAKLLHWNGRHKPWDFESVHNDL [P18E] | 2.98
QEAKLLHWNGRHKPWDFVSVHNDL [P18V] | 2.82
QEAKLLHWNGRHKPWDFCSVHNDL [P18C] | 2.6
QEAKLLHWNGRHKPWDFGSVHNDL [P18G] | 2.32
QEAKLLHWNGRHKPWDFPYVHNDL [S19Y] | 2.12
QEAKLLHWNGRHKPWDFPWVHNDL [S19W] | 1.61
QEAKLLHWNGRHKPWDFPDVHNDL [S19D] | 3.43
QEAKLLHWNGREKPWDFPSVHNDL [H12E] | 3.19
QEAKLLHWNGRSKPWDFPSVHNDL [H12S] | 2.77
QEAKLLHWNGRDKPWDFPSVHNDL [H12D] | 3.26
QEAKLLHWNGRTKPWDFPSVHNDL [H12T] | 2.79
QEAKLLHWNGRPKPWDFPSVHNDL [H12P] | 2.68
QEAKLLHWNGRFKPWDFPSVHNDL [H12F] | 2.13
QEAKLLHWNGRWKPWDFPSVHNDL [H12W] | 2.54
QEAKLLHWNGRHKPWDFPSVRNDL [H21R] | 3
QEAKLLHWNGRHKPWDFPSVTNDL [H21T] | 3
QEAKLLHWNGRHKPWDFPSVPNDL [H21P] | 2.41
QEAKLLHWNGRHKPWDFPSVWNDL [H21W] | 2.18
QEAKLLHWNGRHKPWDFPSVGNDL [H21G] | 3.09
QEAKLLHWNGRHKPWDFPSVINDL [H21I] | 2.77

Variant | protein stability index
QEAKLLHWNGRHKPWDFPSVYNDL [H21Y] | 2.44
QEAKLLHWNGRHKPWDFPSVNNDL [H21N] | 2.96
QEAKLLHWNGRHKPWDFPSVLNDL [H21L] | 2.39
QEAKLLHWNGRHKPWDFPSVENDL [H21E] | 3.46
QEAKLLHWNGRHKPWRFPSVHNDL [D16R] | 2.33
QEAKLLHWNGRHKPWAFPSVHNDL [D16A] | 1.96
QEAKLLHWNGRHKPWCFPSVHNDL [D16C] | 1.55
QEAKLLHWNGRHKPWEFPSVHNDL [D16E] | 2.69
QEAKLLHWNGRHKPWIFPSVHNDL [D16I] | 2.37
QEAKLLHWNGRHKPWQFPSVHNDL [D16Q] | 2.48
QEAKLLHWNGRHKPWNFPSVHNDL [D16N] | 2.42
QEAKLLHWNGRHKPWWFPSVHNDL [D16W] | 2.5
QEAKLLHWNGRHKPWVFPSVHNDL [D16V] | 2.12
QEAKLLHWNGRHKPWHFPSVHNDL [D16H] | 2.09
QEAKLLHWNGRHKPWYFPSVHNDL [D16Y] | 1.87
QEAKLLHWNGRHKPWLFPSVHNDL [D16L] | 2.32
QEAKLLHWNGRHKPWDFPSVHNQL [D23Q] | 2.4
QEAKLLHWNGRHKPWDFPSVHNFL [D23F] | 2.6
QEAKLLHWNGRHKPWDFPSVHNHL [D23H] | 2.38
QEAKLLHWNGRHKPWDFPSVHNEL [D23E] | 2.72
QEAKLLHWNGRHKPWDFPSVHNWL [D23W] | 2.48
QEAKLLHWNGRHKPWDFPSVHNRL [D23R] | 1.88
QEAKLLHWNGRHKPWDFPSVHNLL [D23L] | 1.48
QEAKLLHWNGRHKPWDFPSVHNAL [D23A] | 1.96

Variant | protein stability index
QEAKLLHWNGRHKPWDFPSVHNIL [D23I] | 2.27
QEAKLLHWNGRHKPWDFPSVHNSL [D23S] | 2.17
QEAKLLHWNGRHKPWDFPSVHNGL [D23G] | 2.23
QENKLLHWNGRHKPWDFPSVHNDL [A3N] | 2.84
QEWKLLHWNGRHKPWDFPSVHNDL [A3W] | 2.24
QESKLLHWNGRHKPWDFPSVHNDL [A3S] | 2.69
QEPKLLHWNGRHKPWDFPSVHNDL [A3P] | 2.33
QETKLLHWNGRHKPWDFPSVHNDL [A3T] | 2.75
QERKLLHWNGRHKPWDFPSVHNDL [A3R] | 1.95
QEGKLLHWNGRHKPWDFPSVHNDL [A3G] | 2.6
QEIKLLHWNGRHKPWDFPSVHNDL [A3I] | 2.24
QEAKLLHWNGRHKPFDFPSVHNDL [W15F] | 2.88
QEAKLLHWNGRHKPQDFPSVHNDL [W15Q] | 4.37
QEAKLLHWNGRHKPHDFPSVHNDL [W15H] | 3.17
QEAKLLHWNGRHKPCDFPSVHNDL [W15C] | 3.22
QEAKLLHWNGRHKPSDFPSVHNDL [W15S] | 3.52
QEAKLLHWNGRHKPMDFPSVHNDL [W15M] | 3.48
QEAKMLHWNGRHKPWDFPSVHNDL [L5M] | 2.94
QEAKRLHWNGRHKPWDFPSVHNDL [L5R] | 2.92
QEAKYLHWNGRHKPWDFPSVHNDL [L5Y] | 2.45
QEAKELHWNGRHKPWDFPSVHNDL [L5E] | 3.33
QEAKSLHWNGRHKPWDFPSVHNDL [L5S] | 3.27
